Data reported in patent US20030194400.

Target: Fn-TF:Factor VIIa complex (UniProt P08709)
Sequence (chain, as listed by the source, chain 1 of 2): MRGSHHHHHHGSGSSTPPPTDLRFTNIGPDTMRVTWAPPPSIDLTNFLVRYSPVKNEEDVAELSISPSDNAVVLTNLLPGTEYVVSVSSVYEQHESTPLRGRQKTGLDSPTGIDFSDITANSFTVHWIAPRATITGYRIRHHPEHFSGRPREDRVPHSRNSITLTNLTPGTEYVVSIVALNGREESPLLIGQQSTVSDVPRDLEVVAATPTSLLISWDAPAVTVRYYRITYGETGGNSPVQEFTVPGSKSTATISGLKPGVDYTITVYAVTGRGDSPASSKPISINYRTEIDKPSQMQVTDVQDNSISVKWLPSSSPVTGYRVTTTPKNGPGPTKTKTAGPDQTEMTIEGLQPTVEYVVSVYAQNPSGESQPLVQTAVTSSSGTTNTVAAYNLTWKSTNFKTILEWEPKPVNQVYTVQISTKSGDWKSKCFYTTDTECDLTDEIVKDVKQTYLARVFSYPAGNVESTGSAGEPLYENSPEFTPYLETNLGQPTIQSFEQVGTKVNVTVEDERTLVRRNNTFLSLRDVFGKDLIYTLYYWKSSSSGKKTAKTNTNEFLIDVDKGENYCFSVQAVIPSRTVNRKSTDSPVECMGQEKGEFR
Sequence (P08709 61-466, chain 2 of 2): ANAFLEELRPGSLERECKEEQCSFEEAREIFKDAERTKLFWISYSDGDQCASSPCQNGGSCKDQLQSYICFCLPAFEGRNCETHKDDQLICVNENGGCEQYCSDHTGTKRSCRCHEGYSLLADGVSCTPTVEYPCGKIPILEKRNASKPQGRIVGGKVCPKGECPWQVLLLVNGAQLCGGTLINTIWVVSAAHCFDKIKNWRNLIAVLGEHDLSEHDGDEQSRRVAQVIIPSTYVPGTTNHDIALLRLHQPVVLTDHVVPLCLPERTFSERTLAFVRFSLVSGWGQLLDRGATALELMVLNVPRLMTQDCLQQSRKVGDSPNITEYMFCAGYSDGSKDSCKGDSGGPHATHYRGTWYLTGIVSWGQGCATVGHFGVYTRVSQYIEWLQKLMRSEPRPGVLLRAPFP

Chain of Factor X (chain): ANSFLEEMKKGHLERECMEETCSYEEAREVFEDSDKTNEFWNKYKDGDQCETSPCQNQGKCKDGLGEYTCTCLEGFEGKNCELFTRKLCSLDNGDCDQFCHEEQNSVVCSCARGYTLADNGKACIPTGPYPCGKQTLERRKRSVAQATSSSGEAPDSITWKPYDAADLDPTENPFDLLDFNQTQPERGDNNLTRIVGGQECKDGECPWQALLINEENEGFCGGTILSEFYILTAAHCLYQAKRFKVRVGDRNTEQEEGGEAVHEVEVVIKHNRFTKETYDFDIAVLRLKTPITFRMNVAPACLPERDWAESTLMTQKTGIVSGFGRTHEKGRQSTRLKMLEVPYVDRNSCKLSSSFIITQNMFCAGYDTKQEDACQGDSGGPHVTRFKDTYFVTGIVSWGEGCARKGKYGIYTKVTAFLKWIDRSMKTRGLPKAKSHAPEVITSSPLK

Factor X
proteolytic activity toward Factor X (Factor Xa generation, Spectrozyme FXa): The increasing concentration of Fn-TF led to increased proteolytic activity similar to the curve obtained with TF1-218
